Measured values as given in the supplement of paper PMC12042874.
± gives the uncertainty stated by the source.

Assay: amyloid nucleation score (Sup35N fusion, yeast selection) (log enrichment); library NNK3; higher = more nucleation; inactive = no reads after selection
Method in brief: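 The nucleation score is the log enrichment of output over input reads, calculated with DiMSum and centred on the mode score of non-aggregating sequences. Sequences with under 100 input reads were excluded. Reads came from Illumina sequencing of plasmid inserts from psi-negative yeast expressing Sup35N fused to peptides of 20 random codons, induced 24 hours with 100 μM copper sulfate and grown 7 days at 30°C without adenine and uracil.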
For VLRSANCCCGFD, the amyloid nucleation score was “inactive”.
For VLSCVAIRSYILHKVSVGIC, the amyloid nucleation score was “inactive”.
With VLSVLFFLLLSPPIRFQVEG the amyloid nucleation score was “inactive”.
In the case of VLTVVAKAWFPVFRPTWFLL, the amyloid nucleation score is reported as “inactive”.
With VLVCSAMNGFSFHNLSH the amyloid nucleation score was 0.872 ± 0.15.
In the case of VLVESDLSVIATVSGLLCAR, the amyloid nucleation score is reported as “inactive”.
In the case of VLVVCSLSAC, the amyloid nucleation score is reported as “inactive”.
In the case of VLWDGF, the amyloid nucleation score is reported as “inactive”.
With VLYSYRYSYSVGLCTEMHRF the amyloid nucleation score was “inactive”.
For VMCFYRLLNVIQWTTANVFG, the amyloid nucleation score was “inactive”.
Work on VMDIVHPSSDAVVGRA yielded an amyloid nucleation score of -0.125 ± 0.53.
With VMFIVNLY the amyloid nucleation score was 3.07 ± 0.08.
For VMIFSCYSAYYPNLISHSRW, the amyloid nucleation score was “inactive”.
For VMKPSNVVQGSMNPESSLGM, the amyloid nucleation score was “inactive”.
For VMLRMDARQWHSLATVTVVP, the amyloid nucleation score was “inactive”.
Work on VMTVVRKSSSSVVAISWISE yielded an amyloid nucleation score of 0.392 ± 0.54.
For VMVCFG, the amyloid nucleation score was “inactive”.
In the case of VMYHGMITLLVMLKTEQRKK, the amyloid nucleation score is reported as “inactive”.
With VNEERGNYVWSCIMRYHLWD the amyloid nucleation score was “inactive”.
VNEIF gave an amyloid nucleation score of 0.432 ± 0.23.
In the case of VNENLTGFIGV, the amyloid nucleation score is reported as “inactive”.
For VNESMNDIANRSDEGYFGCA, the amyloid nucleation score was “inactive”.
With VNGCIRCCTPVSKYISVDLA the amyloid nucleation score was “inactive”.
For VNIIF, the amyloid nucleation score was “inactive”.
In the case of VNLVLIISNPR, the amyloid nucleation score is reported as “inactive”.
In the case of VNMMRDVVIDKVLFLSSHVA, the amyloid nucleation score is reported as 1.48 ± 0.12.
With VNNKSFCRWAGANNLLQVMH the amyloid nucleation score was “inactive”.
With VNNSRGSAYSEVRSILRRYA the amyloid nucleation score was “inactive”.
In the case of VNQVVM, the amyloid nucleation score is reported as “inactive”.
With VNRNVLTVSGCCLVYAPLC the amyloid nucleation score was 2.26 ± 0.06.
With VNSRCI the amyloid nucleation score was “inactive”.
For VNTFGLDHEITSFMMCGETG, the amyloid nucleation score was “inactive”.
VNVRHTGSLTFFF showed an amyloid nucleation score of 1.01 ± 0.12.
Substance VNVVEFTRFRAW has an amyloid nucleation score of 0.585 ± 0.35.
For VNYSLLRVNMFKYGSSYPIP, the amyloid nucleation score was “inactive”.
With VPFDGLFWYCRCR the amyloid nucleation score was “inactive”.
For VPGQYWFIDGMTFGNDDTRS, the amyloid nucleation score was “inactive”.
With VPGRVMVLRIWIYRNVQKRG the amyloid nucleation score was “inactive”.
In the case of VPKPD, the amyloid nucleation score is reported as “inactive”.
Work on VPLMQGD yielded an amyloid nucleation score of 3.16 ± 0.056.
For VPRMSALRESFHKDNS, the amyloid nucleation score was “inactive”.
With VPTVRLTSSSFL the amyloid nucleation score was “inactive”.
In the case of VPVVGISYSYLILWFYLYVG, the amyloid nucleation score is reported as “inactive”.
In the case of VPWGIVSFA, the amyloid nucleation score is reported as “inactive”.
With VPWSLCDD the amyloid nucleation score was 0.508 ± 0.12.
In the case of VQFFNDRSLVDSQIGRLLLP, the amyloid nucleation score is reported as “inactive”.
With VQLGAD the amyloid nucleation score was “inactive”.
With VQLLDLKILIIDSVDSKYVC the amyloid nucleation score was “inactive”.
With VQRISTIMINV the amyloid nucleation score was “inactive”.
For VQRSYWICQLPAGVSWSGI, the amyloid nucleation score was “inactive”.
In the case of VQSKMCVKYFWGRHTRHQLG, the amyloid nucleation score is reported as “inactive”.
In the case of VQTSHHNAVEICCMCLCQML, the amyloid nucleation score is reported as 3.02 ± 0.065.
For VQWCQDAFVIV, the amyloid nucleation score was “inactive”.
With VQYFPISGDARGRQLQRI the amyloid nucleation score was “inactive”.
For VRAGTIYRGVYHFCLFCMGE, the amyloid nucleation score was 0.828 ± 0.15.
In the case of VRCKVMSSAAATVFFVSGAV, the amyloid nucleation score is reported as “inactive”.
For VRDCTTDTQWERWVETLSPS, the amyloid nucleation score was “inactive”.
For VRFVLDRIACLVGVYIYFWG, the amyloid nucleation score was “inactive”.
With VRLWFSGRTFSVKVVTHAPC the amyloid nucleation score was 1.41 ± 0.098.
For VRMQLMWCGP, the amyloid nucleation score was “inactive”.
In the case of VRMVKYCLTLSSRTYCLIIM, the amyloid nucleation score is reported as “inactive”.
With VRREYDWMPHHWMGTGLCKC the amyloid nucleation score was “inactive”.
For VRVLWI, the amyloid nucleation score was “inactive”.
With VRVSNSFMTDTK the amyloid nucleation score was “inactive”.
With VRVTVLFEIHGDVCMLMSVA the amyloid nucleation score was 0.827 ± 0.13.
For VRYWTTPVL, the amyloid nucleation score was “inactive”.
With VSALSGGFMENCCQSNFLTP the amyloid nucleation score was “inactive”.
With VSDRCFKSTWSLMFYMGVVV the amyloid nucleation score was “inactive”.
With VSESSFRLCGGLRSGCLKSA the amyloid nucleation score was “inactive”.
With VSFEFEIRESSGISCM the amyloid nucleation score was “inactive”.
In the case of VSFVSSVIVDGMPEILSIRY, the amyloid nucleation score is reported as “inactive”.
For VSLIVLVRSVCSCVTHSFYE, the amyloid nucleation score was 2.08 ± 0.097.
For VSLRQVS, the amyloid nucleation score was “inactive”.
For VSLVMSQVLRHHRCLLIYYL, the amyloid nucleation score was “inactive”.
VSMIKRLGHCGVLGGKTYRV gave an amyloid nucleation score of -0.671 ± 0.8.
With VSSAMYYLFKGLAETLRYSS the amyloid nucleation score was “inactive”.
With VSSCAC the amyloid nucleation score was “inactive”.
Work on VSSKDGLFCCL yielded an amyloid nucleation score of 0.209 ± 0.66.
In the case of VSVRYPLNKECFYDCL, the amyloid nucleation score is reported as “inactive”.
For VSWNWATGLRFRPLSCYGLV, the amyloid nucleation score was “inactive”.
In the case of VSWVYRSGRFYDGVGVGYRT, the amyloid nucleation score is reported as “inactive”.
For VSYTRTIPLKGSNLMLIWF, the amyloid nucleation score was “inactive”.
For VSYWNEHHSEIVPLGCF, the amyloid nucleation score was “inactive”.
In the case of VTCCARTYYSWP, the amyloid nucleation score is reported as “inactive”.
With VTCWGWSFAGGRHCQVEAGV the amyloid nucleation score was -0.456 ± 0.96.
With VTFSSISHIRRYVSNHMCLG the amyloid nucleation score was “inactive”.
For VTGNDQ, the amyloid nucleation score was “inactive”.
For VTILMLNHYSYTSLLMRKFN, the amyloid nucleation score was 0.704 ± 0.12.
VTLCLSKLAF gave an amyloid nucleation score of 1.26 ± 0.097.
With VTLQSSSQVSSCVNNSR the amyloid nucleation score was “inactive”.
With VTNRIGLV the amyloid nucleation score was “inactive”.
For VTQMKNTLY, the amyloid nucleation score was “inactive”.
With VTRGVLLCEPVTGMHQVACG the amyloid nucleation score was “inactive”.
Work on VTRMDGYVAFISNHSFKSVY yielded an amyloid nucleation score of 1.36 ± 0.14.
For VTSGLERTMFSGNKRRIEVS, the amyloid nucleation score was “inactive”.
With VTSVHTALFSLQNDWNNKGD the amyloid nucleation score was “inactive”.
For VTSVRPIYSRCLLNYMLRSV, the amyloid nucleation score was “inactive”.
In the case of VTTIVYDSYCPLPRCWTWVG, the amyloid nucleation score is reported as “inactive”.
For VTTSMCAIQD, the amyloid nucleation score was “inactive”.
With VTVIYNVDYCKETIFQMVVT the amyloid nucleation score was 0.124 ± 0.48.
In the case of VTVMT, the amyloid nucleation score is reported as “inactive”.
With VTVQK the amyloid nucleation score was “inactive”.
With VVCMDLCFLAGSSMSDLDGC the amyloid nucleation score was “inactive”.
For VVDCWSVKATSDSYDGMWGV, the amyloid nucleation score was “inactive”.
In the case of VVDILFKMHEVDSVI, the amyloid nucleation score is reported as “inactive”.
With VVDLIRNCKDRTVDLLDGIA the amyloid nucleation score was “inactive”.
With VVDYTARWHRSYSSNGQRRM the amyloid nucleation score was “inactive”.
With VVEPNTRVIWRLLHIDLDKQ the amyloid nucleation score was “inactive”.
Substance VVGRSCLFYSIVMY has an amyloid nucleation score of 0.419 ± 0.67.
VVHNYEITWYHL showed an amyloid nucleation score of 1.99 ± 0.074.
With VVILGLHRVVDRRNAKVAKL the amyloid nucleation score was “inactive”.
VVLCVLEYYKFF showed an amyloid nucleation score of 0.848 ± 0.25.
With VVLFYDSCSG the amyloid nucleation score was “inactive”.
With VVLGADGRLPF the amyloid nucleation score was “inactive”.
For VVLYRIGVLSN, the amyloid nucleation score was “inactive”.
In the case of VVNIRDATWAFKLLCGEAHV, the amyloid nucleation score is reported as “inactive”.
With VVNKPIHISSTYTLYSVVLA the amyloid nucleation score was “inactive”.
In the case of VVRLWE, the amyloid nucleation score is reported as “inactive”.
With VVSLPTNILSNTIGEYMEVQ the amyloid nucleation score was “inactive”.
For VVSRVMTGSHHVRQFRM, the amyloid nucleation score was “inactive”.
With VVVMPTNSECCYQYGGMFPM the amyloid nucleation score was “inactive”.
VVVSSYNCVLVQVVICKWGR gave an amyloid nucleation score of 0.192 ± 0.85.
With VVWQTHQVHMVMYERVCTWD the amyloid nucleation score was “inactive”.
With VWDNMMIFLYWFFLKSCSHG the amyloid nucleation score was “inactive”.
For VWDRRK, the amyloid nucleation score was “inactive”.
With VWDYLVAYYVALKNVTDSGQ the amyloid nucleation score was “inactive”.
For VWFINFVCLFKGSLLCISES, the amyloid nucleation score was “inactive”.
For VWGLKFTRFVNTQLRRYPTL, the amyloid nucleation score was “inactive”.
With VWLMGMTYF the amyloid nucleation score was “inactive”.
In the case of VWLWPI, the amyloid nucleation score is reported as “inactive”.
VWRWGDLNSSGCCMWSRLNM gave an amyloid nucleation score of 1.99 ± 0.1.
In the case of VWVMSSWTVRIISPTVWMLV, the amyloid nucleation score is reported as “inactive”.
Substance VWVRLTFKTSY has an amyloid nucleation score of 0.678 ± 0.16.
In the case of VYCFV, the amyloid nucleation score is reported as “inactive”.
With VYCSSVSCLEVWCGPLHTVR the amyloid nucleation score was 1.53 ± 0.081.
For VYFFSGLGTCD, the amyloid nucleation score was “inactive”.
Work on VYFGSINYRRGGGYGYHSVI yielded an amyloid nucleation score of 0.027 ± 0.71.
For VYFLSVQLLYLFLSSALQRE, the amyloid nucleation score was “inactive”.
With VYFPTWFTLVFSPSKFWICI the amyloid nucleation score was “inactive”.
In the case of VYHWFWMQRLNGWFENQQRK, the amyloid nucleation score is reported as “inactive”.
In the case of VYIWRIMTTEIWVRVTWYAG, the amyloid nucleation score is reported as “inactive”.
In the case of VYNQNAKVTN, the amyloid nucleation score is reported as “inactive”.
In the case of VYRRGDIATLLNDI, the amyloid nucleation score is reported as “inactive”.
With VYTGWKKVACNA the amyloid nucleation score was -0.211 ± 0.53.
With VYTRLVYIYQGVFCRIFSAC the amyloid nucleation score was 1.86 ± 0.094.
In the case of VYVMRGSVIWLCRMSMGCCA, the amyloid nucleation score is reported as “inactive”.
In the case of VYVSCRMWNFRKMMMPV, the amyloid nucleation score is reported as “inactive”.
In the case of VYWFKELADSITRCVKNYIY, the amyloid nucleation score is reported as “inactive”.
With VYYNSVNVLSVSGCRLDGLN the amyloid nucleation score was 1.66 ± 0.11.
In the case of WAGESLS, the amyloid nucleation score is reported as “inactive”.
For WASLGINR, the amyloid nucleation score was “inactive”.
In the case of WAWNQSGFTPLYLCLEAWWS, the amyloid nucleation score is reported as “inactive”.
In the case of WAYRCTR, the amyloid nucleation score is reported as “inactive”.
Substance WCASMRNVCYFVVFMESKLS has an amyloid nucleation score of 0.294 ± 0.44.
With WCCLETRLYL the amyloid nucleation score was 1.5 ± 0.1.
With WCDLRFISWSFSVFWCV the amyloid nucleation score was “inactive”.
For WCGGDYVLKNGKFALGVVGS, the amyloid nucleation score was “inactive”.
In the case of WCGQWWLLASGVQSFQCCVY, the amyloid nucleation score is reported as 1.39 ± 0.13.
With WCKCYMSSSWTC the amyloid nucleation score was “inactive”.
With WCLNGSMYLLAVSSG the amyloid nucleation score was “inactive”.
With WCRVIRTSGIYLGCASSGVV the amyloid nucleation score was “inactive”.
In the case of WCTFKNLPLWYWTWCAFQGG, the amyloid nucleation score is reported as “inactive”.
